Here are results for 19 sequences from the Immune Epitope Database (IEDB).

The target in test [1] is HLA-C*14:02. In words: IEDB peptide-MHC binding, purified MHC/direct/fluorescence; filed as Kd, often an IC50 or EC50 that approximates it; ≥ and ≤ were set here for values at or beyond the usual limits of such assays.
Test [2] has as its target HLA-B*40:01. The test is described as above.
The target of test [3] is HLA-A*02:01. Put plainly: IEDB peptide-MHC binding, purified MHC/competitive/radioactivity; ≥ and ≤ were set here for values at or beyond the usual limits of such assays.
Test [4] deals with HLA-A*11:01. In words: IEDB peptide-MHC binding, purified MHC/competitive/fluorescence; filed as Kd, often an IC50 or EC50 that approximates it; ≥ and ≤ were set here for values at or beyond the usual limits of such assays. Conditions: source organism: Influenza A virus (A/goose/Hong Kong/739.2/2002(H5N1)).
Test [5] addresses HLA-B*51:01. The test is described as above. As to conditions: source organism: Salmonella enterica subsp. enterica serovar Typhi.
For test [6], the target named is HLA-B*07:02. The test is described as above. Conditions: source organism: Salmonella enterica subsp. enterica serovar Typhi.
For test [7], the target named is HLA-C*05:01. Put plainly: IEDB peptide-MHC binding, purified MHC/direct/fluorescence; filed as Kd, often an IC50 or EC50 that approximates it; ≥ and ≤ were set here for values at or beyond the usual limits of such assays. As to conditions: source organism: Salmonella enterica subsp. enterica serovar Typhi str. CT18.
The target in test [8] is HLA-A*24:02. The description is as above.
For test [9], the target named is HLA-A*02:01. Put plainly: IEDB peptide-MHC binding, purified MHC/competitive/fluorescence; filed as Kd, often an IC50 or EC50 that approximates it; ≥ and ≤ were set here for values at or beyond the usual limits of such assays. Conditions: source organism: Vaccinia virus GLV-1h68.
In test [10] the target is HLA-B*51:01. In words: IEDB peptide-MHC binding, purified MHC/competitive/radioactivity; filed as Kd, often an IC50 or EC50 that approximates it; ≥ and ≤ were set here for values at or beyond the usual limits of such assays. As to conditions: source organism: Vaccinia virus WR.
Test [11] addresses HLA-B*53:01. The test is described as above. Conditions: source organism: Vaccinia virus WR.
The target of test [12] is HLA-A*33:01. The description is as above. Conditions: source organism: Vaccinia virus WR.
Test [13] deals with HLA-B*54:01. The test is described as above. As to conditions: source organism: Vaccinia virus WR.
Test [14] concerns the target HLA-A*11:01. The description is as above. Conditions: source organism: Vaccinia virus WR.
The target of test [15] is HLA-A*31:01. The description is as above. Conditions: source organism: Vaccinia virus WR.
Test [16] has as its target HLA-A*68:01. Described as above. As to conditions: source organism: Vaccinia virus WR.
Test [17] addresses HLA-A*03:01. The description is as above. As to conditions: source organism: Vaccinia virus WR.
For test [18], the target named is HLA-B*07:02. The description is as above. As to conditions: source organism: Vaccinia virus WR.
Test [19] addresses HLA-B*35:01. The description is as above. As to conditions: source organism: Vaccinia virus WR.
The target of test [20] is HLA-C*06:02. Put plainly: IEDB peptide-MHC binding, purified MHC/direct/fluorescence; filed as Kd, often an IC50 or EC50 that approximates it; ≥ and ≤ were set here for values at or beyond the usual limits of such assays.
Test [21] deals with HLA-B*39:01. Put plainly: IEDB peptide-MHC binding, purified MHC/competitive/fluorescence; filed as Kd, often an IC50 or EC50 that approximates it; ≥ and ≤ were set here for values at or beyond the usual limits of such assays. Conditions: source organism: Bacillus anthracis str. A0488.
The target of test [22] is HLA-A*02:12. The description is as above. Conditions: source organism: Entamoeba histolytica HM-1:IMSS.
The target of test [23] is HLA-A*26:01. In words: IEDB peptide-MHC binding, purified MHC/direct/fluorescence; filed as Kd, often an IC50 or EC50 that approximates it; ≥ and ≤ were set here for values at or beyond the usual limits of such assays. Conditions: source organism: Vibrio parahaemolyticus.
Test [24] addresses HLA-A*02:01. The test is described as above.
Test [25] deals with HLA-A*01:01. The test is described as above. Conditions: source organism: Vibrio parahaemolyticus.
In test [26] the target is HLA-A*11:01. The test is described as above. Conditions: source organism: Vibrio parahaemolyticus.
In test [27] the target is HLA-B*39:01. Described as above. Conditions: source organism: Vibrio parahaemolyticus AQ3810.
For test [28], the target named is HLA-A*31:01. The test is described as above.
In test [29] the target is HLA-A*69:01. Described as above.
Test [30] concerns the target HLA-A*03:01. Described as above. Conditions: source organism: Vibrio parahaemolyticus.
Test [31] deals with HLA-B*58:01. Described as above. Conditions: source organism: Vibrio parahaemolyticus.
The target of test [32] is HLA-B*44:02. The description is as above. As to conditions: source organism: Vibrio parahaemolyticus.
The target in test [33] is HLA-B*07:02. Described as above.
The target in test [34] is HLA-B*08:01. The test is described as above. Conditions: source organism: Vibrio parahaemolyticus.
Test [35] deals with HLA-B*35:01. The description is as above.
Test [36] addresses HLA-B*27:05. The description is as above.
Test [37] deals with HLA-B*15:01. The description is as above. Conditions: source organism: Vibrio parahaemolyticus.
Test [38] addresses HLA-A*01:01. In words: IEDB peptide-MHC binding, purified MHC/competitive/fluorescence; filed as Kd, often an IC50 or EC50 that approximates it; ≥ and ≤ were set here for values at or beyond the usual limits of such assays. Conditions: source organism: Homo sapiens.
Test [39] addresses HLA-A*29:02. Described as above. As to conditions: source organism: Homo sapiens.
In test [40] the target is HLA-A*24:03. Put plainly: IEDB peptide-MHC binding, purified MHC/direct/fluorescence; filed as Kd, often an IC50 or EC50 that approximates it; ≥ and ≤ were set here for values at or beyond the usual limits of such assays. Conditions: source organism: Pseudomonas sp. KIE171.
[41] abbreviates: source organism: Mycobacterium tuberculosis H37Ra.
The mark [42] stands for this setting: source organism: Vibrio parahaemolyticus.
[43] abbreviates: source organism: Pseudomonas sp. KIE171.
[44] abbreviates: source organism: Camelpox virus M-96.

A value given as a limit tells only on which side of the number the result lay.

For the sequence AEAASATPL, the Kd was no less than 20000 nM in [1] (setting [41]) and 21.9 nM in test [2] (source organism: Mycobacterium tuberculosis).
On to ALDGGNKHFL, for which, in [3] (source organism: Homo sapiens), the IC50 stood at 41.7 nM.
In test [4], ASYKIFRIEK came in with a Kd of 0.9 nM.
With FPPGTSLTI, the results for the dissociation constant Kd in [5], in [6] and in test [7] were 564 nM, 187 nM and no less than 20000 nM, respectively.
Consider GLIDIAPHQI, for which the IC50 in test [3] (setting [41]) came out at 49 nM.
Consider GLLGSPVRA, for which the IC50 in test [3] (source organism: Homo sapiens) worked out at 219 nM.
Turning to IYPEWYFLW, the Kd in test [8] (source organism: Campylobacter jejuni subsp. jejuni 81116) was no more than 1 nM.
In the case of KFITHPFLW, the equilibrium dissociation constant (Kd) in test [8] (source organism: Entamoeba histolytica HM-1:IMSS) was no more than 1 nM.
With LMYDIINSV, the Kd in test [9] is 0.6 nM; in test [10], no less than 54500 nM; in [11] it was no less than 78200 nM; in test [12], no less than 20300 nM; in test [13], 258 nM; in test [14] it was 1300 nM. Besides, the Kd in test [15] is 4520 nM; in test [16] it was no less than 77700 nM; in [17] it was no less than 35100 nM; in test [18], no less than 77500 nM; in test [19], no less than 77400 nM; in test [20] (source organism: Vaccinia virus GLV-1h68), 4440 nM.
Take LNTSAGFPYV: in test [3] (source organism: Rhinovirus C), the IC50 was 500 nM.
As to LRHSTAHLL, the values for the Kd in test [21] and in test [20] (source organism: Bacillus anthracis str. A0488) were 71.3 nM and 13 nM, respectively.
The sequence NQNDNEETV displayed a Kd in test [22] of 40.4 nM.
For NSDPEFNVL, the Kd was no less than 20000 nM in test [23]; no less than 20000 nM in test [24] (setting [42]); 387 nM in test [25]; no less than 20000 nM in test [26]; 13 nM in [27]; no less than 20000 nM in [28] (setting [42]). In addition, the Kd in test [29] (setting [42]) was no less than 20000 nM; in test [2] (setting [42]), 5060 nM; in [30] it was no less than 20000 nM; in [31], no less than 20000 nM; in test [32], no less than 20000 nM; in test [33] (setting [42]), no less than 20000 nM. Moreover, the Kd in [34] was no less than 20000 nM; in test [35] (setting [42]), 208 nM; in test [36] (setting [42]), no less than 20000 nM; in [37], no less than 20000 nM.
With RYFSVTRPL, the Kd in test [1] (source organism: Anopheles gambiae str. PEST) was no more than 1 nM; in test [28] (source organism: Homo sapiens), 512 nM; in [33] (source organism: Homo sapiens), no less than 27600 nM; in test [36] (source organism: Homo sapiens) it was 10600 nM.
Turning to SVDGFRASY, the figures for the equilibrium dissociation constant (Kd) in [38] and in test [39] were 7.1 nM and 1.3 nM, respectively.
TFAWASFLW: the Kd in test [8] (source organism: Yersinia pestis CA88-4125) is 3 nM.
For VLSEWLPVT, the IC50 in [3] (source organism: Rift Valley fever virus) stood at 15 nM.
For VPWQEKTAS, the Kd in test [40] stood at 10500 nM; in test [33] (setting [43]) it was 5810 nM; in test [35] (setting [43]) it was 3.28 nM.
For YLMPYSVYI, the Kd was no more than 1 nM in [24] (setting [44]), 7 nM in test [20] (source organism: Variola virus) and no more than 1 nM in test [29] (setting [44]).

As a reminder, the Kd is a measure of binding affinity in units of concentration. One may read the IC50 as the concentration that gives 50% inhibition.
